Results taken from patent publication US20200239541A1 (XYPHOS BIOSCIENCES, published 2020).

What was measured:
human NKG2D-Fc [1] = molecular target: T1, human NKG2D-Fc (human, UniProt P26718 78-216); assay: competition ELISA vs coated WT sMICA, 2 nM human NKG2D-Fc
T1 construct: also called natural NKG2D-Fc; not shown: Fc
T1 sequence (looked up): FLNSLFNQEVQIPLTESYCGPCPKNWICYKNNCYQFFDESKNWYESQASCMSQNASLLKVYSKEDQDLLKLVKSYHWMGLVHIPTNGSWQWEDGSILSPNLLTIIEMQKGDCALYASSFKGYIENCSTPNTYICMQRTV
From the text: (§1) To the NKG2DLs in the above example, we directly attached heterologous molecules such as a polypeptide to each of these 4 modified α1-α2 NKG2DLs using a linker peptide. Four His-tagged proteins (SEQ ID NOs.: 25-28) consisting of modified NKG2DLs with attached heterologous molecules were expressed in insect cells and purified to characterize their NKG2D binding affinities and kinetic binding parameters. Using a competitive binding ELISA, we determined the relative NKG2D binding affinities of the 4 modified α1-α2 variants.

[2] = molecular target: T2, Y152A NKG2D-Fc (Example 5) (human); assay: phage ELISA
T2 construct: also called non-natural Y152A NKG2D; not shown: Fc
T2 chain: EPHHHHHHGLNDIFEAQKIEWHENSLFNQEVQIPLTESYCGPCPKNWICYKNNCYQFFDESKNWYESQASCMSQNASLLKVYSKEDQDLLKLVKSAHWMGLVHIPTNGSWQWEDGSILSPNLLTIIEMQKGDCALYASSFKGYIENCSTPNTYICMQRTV

[3] = molecular target: T3, biotinylated human NKG2D (Example 1) (human, UniProt P26718 78-216); assay: BLI (Octet), Kd = kOFF/kON
T3 construct: also called recombinant biotinylated NKG2D
T3 sequence (looked up): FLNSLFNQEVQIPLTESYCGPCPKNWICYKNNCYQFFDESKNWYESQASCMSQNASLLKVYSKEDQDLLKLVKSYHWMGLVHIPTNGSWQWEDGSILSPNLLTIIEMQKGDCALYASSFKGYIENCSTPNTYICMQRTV

[4] = molecular target: T3, biotinylated human NKG2D (Example 1); assay: BLI (Octet), biotinylated human NKG2D coated, 100 nM analyte
human NKG2D-Fc [5] = molecular target: T1, human NKG2D-Fc; assay: competition ELISA vs coated WT sMICA
From the text: as §1

ULBP4-Fc (R&D Systems) = molecular target: T4, ULBP4-Fc (R&D Systems) (human, UniProt Q8TD07 31-225); assay: ELISA, ligand-Fc coated, biotinylated NKG2D titrated
T4 construct: not shown: Fc of the bought reagent
T4 sequence (looked up): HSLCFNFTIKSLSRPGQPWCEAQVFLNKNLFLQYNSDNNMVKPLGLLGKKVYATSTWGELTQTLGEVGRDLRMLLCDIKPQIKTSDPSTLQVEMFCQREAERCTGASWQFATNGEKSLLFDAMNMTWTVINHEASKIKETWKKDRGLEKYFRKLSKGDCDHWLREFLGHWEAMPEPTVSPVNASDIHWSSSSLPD
Experimental: (§2) In addition to purifying the above 3 Fc-fusion proteins NKG2D ligand-Fc fusion proteins MICB-Fc, ULBP1-Fc, ULBP2-Fc, ULBP3-Fc, and ULBP4-Fc were purchased from R&D Systems, Inc. (Minneapolis, Minn.). Binding of the different α1-α2 domain-Fc fusions to both natural and non-natural NKG2D ectodomain proteins was analyzed using a plate-based ELISA method. All of the natural and non-natural α1-α2 domain-Fc fusions were coated overnight at 4° C. onto separate wells of Maxisorp 96 well plates using a coating concentration of 2 μg/ml in phosphate-buffered saline (PBS). The plates were washed 3-times in PBS/0.05% Tween20 at 20-22° C., and blocked with 0.5% bovine serum albumin for 2 hours. The biotinylated natural and non-natural NKG2D receptor proteins were titrated against the plate-bound NKG2D ligands for 2 hours at 20-22° C., washed 3 times with PBS/0.05% Tween20 at 20-22° C., and the bound NKG2D proteins subsequently detected using a streptavidin-HRP secondary detection step and developed with 1-Step Ultra TMB Elisa.

ULBP1-Fc (R&D Systems) = molecular target: T5, ULBP1-Fc (R&D Systems) (human, UniProt Q9BZM6 26-216); assay: as above
T5 construct: not shown: Fc of the bought reagent
T5 sequence (looked up): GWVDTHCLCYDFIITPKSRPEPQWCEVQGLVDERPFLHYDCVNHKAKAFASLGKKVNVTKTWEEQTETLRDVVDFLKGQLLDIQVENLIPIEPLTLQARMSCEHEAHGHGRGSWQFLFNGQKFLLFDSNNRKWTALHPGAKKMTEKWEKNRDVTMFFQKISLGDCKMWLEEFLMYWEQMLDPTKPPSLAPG
Experimental: as §2

ULBP2-Fc (R&D Systems) = molecular target: T6, ULBP2-Fc (R&D Systems) (human, UniProt Q9BZM5 26-217); assay: as above
T6 construct: not shown: Fc of the bought reagent
T6 sequence (looked up): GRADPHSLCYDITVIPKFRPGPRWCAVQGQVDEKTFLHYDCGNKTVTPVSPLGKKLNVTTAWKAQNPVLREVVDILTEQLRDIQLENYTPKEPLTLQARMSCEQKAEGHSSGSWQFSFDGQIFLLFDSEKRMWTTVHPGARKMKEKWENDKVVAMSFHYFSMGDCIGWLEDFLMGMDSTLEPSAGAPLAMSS
Experimental: as §2

ULBP3-Fc (R&D Systems) = molecular target: T7, ULBP3-Fc (R&D Systems) (human, UniProt Q9BZM4 30-217); assay: as above
T7 construct: not shown: Fc of the bought reagent
T7 sequence (looked up): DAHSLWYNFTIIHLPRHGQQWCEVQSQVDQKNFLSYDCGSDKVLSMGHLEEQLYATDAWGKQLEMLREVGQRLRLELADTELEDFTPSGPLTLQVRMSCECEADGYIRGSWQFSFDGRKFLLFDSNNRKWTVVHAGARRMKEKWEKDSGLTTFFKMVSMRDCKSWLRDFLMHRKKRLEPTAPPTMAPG
Experimental: as §2

MICB-Fc (R&D Systems) = molecular target: T8, MICB-Fc (R&D Systems) (human, UniProt Q29980 23-298); assay: as above
T8 construct: not shown: Fc of the bought reagent
T8 sequence (looked up): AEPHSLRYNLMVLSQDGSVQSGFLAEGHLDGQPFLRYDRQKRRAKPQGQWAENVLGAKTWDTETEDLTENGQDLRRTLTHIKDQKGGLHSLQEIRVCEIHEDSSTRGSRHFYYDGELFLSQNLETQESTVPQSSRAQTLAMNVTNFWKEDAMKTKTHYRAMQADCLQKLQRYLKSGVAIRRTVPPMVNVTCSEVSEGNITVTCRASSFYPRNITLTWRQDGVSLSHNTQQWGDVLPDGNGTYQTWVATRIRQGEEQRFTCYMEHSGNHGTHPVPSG
Experimental: as §2

B1: WT α1-α2 domain (soluble wild-type MICA, titrated) (ligand, UniProt Q29983 24-204, looked up)
chain: EPHSLRYNLTVLSWDGSVQSGFLTEVHLDGQPFLRCDRQKCRAKPQGQWAEDVLGNKTWDRETRDLTGNGKDLRMTLAHIKDQKEGLHSLQEIRVCEIHEDNSTRSSQHFYYDGELFLSQNLETKEWTMPQSSRAQTLAMNVRNFLKEDAMKTKTHYHAMHADCLQELRRYLKSGVVLRRT
notes: domain: α1-α2; also called WT MICA; WT NKG2DL
IC50 (human NKG2D-Fc [1]): 19.4 nM

B2: ULBP2.S1 (phage clone) (ligand)
chain: AAEPHSLSYDITVIPKFRPGPRWCAVQGQVDEKTFLHYDCGNKTVTPVSPLGKKLNVTTAWKAQNPVLREVVDILTEQLWDIQLENYTPKEPLTLQARMSCEQKAEGHSSGSWQFSFDGQIFLLFDSEKRMWTTVHPGARKMKEKWENDKVVATTLYTWSMGDCIGWLEDFLMGMDSTLEPSAGAP
fold selective binding to Y152A NKG2D over natural NKG2D [2]: > 10 fold

B3: ULBP2.S3 (phage clone) (ligand)
chain: AAEPHSLSYDITVIPKFRPGPRWCAVQGQVDEKTFLHYDCGNKTVTPVSPLGKKLNVTTAWKAQNPVLREVVDILTEQLWDIQLENYTPKEPLTLQARMSCEQKAEGHSSGSWQFSFDGQIFLLFDSEKRMWTTVHPGARKMKEKWENDKVVATKLYLWSMGDCIGWLEDFLMGMDSTLEPSAGAP
fold selective binding to Y152A NKG2D over natural NKG2D [2]: > 10 fold

B4: ULBP2.S2 (phage clone) (ligand)
chain: AAEPHSLSYDITVIPKFRPGPRWCAVQGQVDEKTFLHYDCGNKTVTPVSPLGKKLNVTTAWKAQNPVLREVVDILTEQLWDIQLENYTPKEPLTLQARMSCEQKAEGHSSGSWQFSFDGQIFLLFDSEKRMWTTVHPGARKMKEKWENDKVVATLMRIWSMGDCIGWLEDFLMGMDSTLEPSAGAP
fold selective binding to Y152A NKG2D over natural NKG2D [2]: > 10 fold

B5: WED-MICA α1-α2 domain (N69W, K152E, K154D) (ligand)
chain: EPHSLRYNLTVLSWDGSVQSGFLTEVHLDGQPFLRCDRQKCRAKPQGQWAEDVLGNKTWDRETRDLTGWGKDLRMTLAHIKDQKEGLHSLQEIRVCEIHEDNSTRSSQHFYYDGELFLSQNLETKEWTMPQSSRAQTLAMNVRNFLKEDAMETDTHYHAMHADCLQELRRYLKSGVVLRRTVPPMVQVTRSEASGGSGDRVTITCRASQDVSTAVAWYQQKPGKAPKLLIYSASFLYSGVPSRFSGSGSGTDFTLTISSLQPEDFATYYCQQSYTTPPTFGQGTKVEIKGGSSRSSSSGGGGSGGGGEVQLVESGGGLVQPGGSLRLSCAASGFTFTSTGISWVRQAPGKGLEWVGRIYPTNGSTNYADSVKGRFTISADTSKNTAYLQMNSLRAEDTAVYYCARTYGIYDLYVDYTEYVMDYWGQGTLVTVSSGGSSRSSSSGGGGSGGGGDIQMTQSPSSLSASGGSGQITVTCRASGFYPWNITLSWRQDGVSLSHDTQQWGDVLPDGQGTYQTWVATRISQGEEQRFTCYMEHSGQHSTHPVPSGKGSHHHHHH
notes: also called WED-α1-α2; MICwed
IC50 (human NKG2D-Fc [1]): 4.4 nM | Kd [3]: 5.9 nM | koff [4]: 0.0017 s⁻¹ | kon [4]: 290000 M⁻¹ s⁻¹

B6: α1-α2 variant 15 (His-tagged, with attached heterologous polypeptide) (ligand)
chain: EPHSLRYNLTVLSWDGSVQSGFLTEVHLDGQPFLRCDRQKCRAKPQGQWAEDVLGNKTWDRETRDLTGWGKDLRMTLAHIKDQKEGLHSLQEIRVCEIHEDNSTRSSQHFYYDGELFLSQNLETNEWTMPQSSRAQTLAMNVRNFLKEDAMETDTHYHAMRADCLQELRRYLKSGVVLRRTVPPMVQVTRSEASGGSGDRVTITCRASQDVSTAVAWYQQKPGKAPKLLIYSASFLYSGVPSRFSGSGSGTDFTLTISSLQPEDFATYYCQQSYTTPPTFGQGTKVEIKGGSSRSSSSGGGGSGGGGEVQLVESGGGLVQPGGSLRLSCAASGFTFTSTGISWVRQAPGKGLEWVGRIYPTNGSTNYADSVKGRFTISADTSKNTAYLQMNSLRAEDTAVYYCARTYGIYDLYVDYTEYVMDYWGQGTLVTVSSGGSSRSSSSGGGGSGGGGDIQMTQSPSSLSASGGSGQITVTCRASGFYPWNITLSWRQDGVSLSHDTQQWGDVLPDGQGTYQTWVATRISQGEEQRFTCYMEHSGQHSTHPVPSGKGSHHHHHH
IC50 (human NKG2D-Fc [1]): 1.7 nM | Kd [3]: 1.5 nM | fold better binding than WT NKG2DL (human NKG2D-Fc [5]): 11 fold | koff [4]: 0.00011 s⁻¹ | kon [4]: 70000 M⁻¹ s⁻¹

B7: His-avitag natural NKG2D ectodomain, biotinylated (receptor)
chain: EPHHHHHHGLNDIFEAQKIEWHENSLFNQEVQIPLTESYCGPCPKNWICYKNNCYQFFDESKNWYESQASCMSQNASLLKVYSKEDQDLLKLVKSYHWMGLVHIPTNGSWQWEDGSILSPNLLTIIEMQKGDCALYASSFKGYIENCSTPNTYICMQRTV
notes: also called natural form of the ectodomain of NKG2D
binding result (ULBP4-Fc (R&D Systems)): binds | binding result (ULBP1-Fc (R&D Systems)): binds | binding result (ULBP2-Fc (R&D Systems)): binds | binding result (ULBP3-Fc (R&D Systems)): binds | binding result (MICB-Fc (R&D Systems)): binds

B8: MICA25.17 (phage clone) (ligand)
chain: EPHSLRYNLTVLSWDGSVQSGFLTEVHLDGQPFLRCDRQKCRAKPQGQWAEDVLGNKTWDRETRDLTGWGTTLLMTLAHIKDQKEGLHSLQEIRVCEIHEDNSTRSSQHFYYDGELFLSQNLETLEWTMPQSSRAQTLAMNVRNFLKEDAMETDIGYRLMRADCLSELRRYLKSGVVLRRTV
fold selective binding to Y152A NKG2D over natural NKG2D [2]: > 10 fold

B9: MICA25.18 (phage clone) (ligand)
chain: EPHSLRYNLTVLSWDGSVQSGFLTEVHLDGQPFLRCDRQKCRAKPQGQWAEDVLGNKTWDRETRDLTGWGTFLRMTLAHIKDQKEGLHSLQEIRVCEIHEDNSTRSSQHFYYDGELFLSQNLETLEWTMPQSSRAQTLAMNVRNFLKEDAMETDRSGLLMRADCLSELRRYLKSGVVLRRTV
fold selective binding to Y152A NKG2D over natural NKG2D [2]: > 10 fold

B10: ULBP3.S1 (phage clone) (ligand)
chain: AAEPHSLWYNFTIIHLPRHGQQWCEVQSQVDQKNFLSYDCGSDKVLSMGHLEEQLYATDAWGKQLEMLREVGQRLRLELADTELEDFTPSGPLTLQVRMSCESEADGYIRGSWQFSFDGRKFLLFDSNNRKWTVVHAGARRMKEKWEKDSGLTTDLIRRSMGDCKSWLRDFLMHRKKRLEPTAP
fold selective binding to Y152A NKG2D over natural NKG2D [2]: > 10 fold

B11: ULBP3.S2 (phage clone) (ligand)
chain: AAEPHSLWYNFTIIHLPRHGQQWCEVQSQVDQKNFLSYDCGSDKVLSMGHLEEQLYATDAWGKQLEMLREVGQRLRLELADTELEDFTPSGPLTLQVRMSCESEADGYIRGSWQFSFDGRKFLLFDSNNRKWTVVHAGARRMKEKWEKDSGLTTYFYLRSMGDCKSWLRDFLMHRKKRLEPTAP
fold selective binding to Y152A NKG2D over natural NKG2D [2]: > 10 fold
